Test: soluble on expression in E. coli; label from the status in PepcDB or PDB records

| Sequence | soluble on expression in E. coli |
| --- | --- |
| MPDVPETVGTPDGSTEFEHRPTTDQSFENALAKARNGTRLTVDDAVELFTTGTDRDGIDHDRKEQVLEAADRRRAEVVGDEVTFVANLNNNVTTACNTGCLFCNFKDRSEQFRSDYQEDHGGFTKTPSESRQIVQDALDRGIYEVCSVSGLHPALALDTEHREILETSDRGDLNYRSPDEYETDPATYCEQLDAMNVGDIHLHSMTPEEAYHARRGTDWSYEEVFSRLQDAGLDSVPGTAAEILVDEVRDVICPGKIRTDEWLEAMAAAASVGLDMTSTMMYGHVENEYHRALHLQRIRDLQDRTGAITEFVPLSFVHEETPLYERGMVDGGATVDEDELMIAVSRLFLDNVDHIQASWVKYGDTQGLKMLTCGADDFMGTILSEEITKRAGGDYGEFRSFQEYADMITAIGRTPVERSTDYEQRRVIDPDADVLGPQLGPRADGTPLLD | not soluble |
| MSLADKRKHRFSVRYWLWRHTSLKRVAFCGRVAASAVASVGVRCSDGRAGFAGLQSCGSVWACPVCNAKIMARRGLELGAAVETWTKHGGRVAFMTFTVRHSRKDSLTAVWDGVASGWRRVTSGKGWTSDQLRHGVEGFVRVVEVTHGRNGWHVHLHVLVFLVGDFGDALALHRSMFGRWERGVLAAGLGTPLARAQDVQQMSAATGLDHLARYLSKAQFQGKIGHELTNSQSKTARSALSTRSTWEVLGDAANGLAKEVGLWFEWEKGSRGRRQIGWSAGLRDRLGLMVEESDDVIAAEEVGSVADTVALITGDGWRRLVGQQKLYECLRSCELGGQAGLARWLQEHGIEHELVEVDEGHHHHHH | soluble |
| MGGLLFSSLQHCQQGFVISNELRQQQSELTSTWDLMLQTRINLSRSAARMMMDASNQQSSAKTDLLQNAKTTLAQAAAHYANFKNMTPLPAMAEASANVDEKYQRYQAALAELIQFLDNGNMDAYFAQPTQGMQNALGEALGNYARVSENLYRQTFDQSAHDYR | soluble |
| MTKEERISRATELFKSGYNCSQSVVAAFADMYGFTEEQALRMAASFGGGIGRMRETCGAACGMFLLAGLEKGAIDGADREGKAANYALVQELAAEFKKRNGSLNCGELLGLKKKAPVSSEPEARTEQYYAKRPCSKMVEEAARIWAEYLEKEKK | not soluble |
| MAHHHHHHMEDAFAGSCVQSLFEPKADLSLCVNKSIKLFLKEVPIPPADSVDRADEQNSTDAKKEQRESALSENLSLLNGYAYFNRIKSNINLLHTELHGIKRDFLFQKKQTKKNIQKLKIVRKQNKIYQSVLQEIKKDRRRKETYELLCTEIQKLEEVNYLNKKQQMEKRDIEDLQQKMKDIENAIRINDENIQRTIQQISDIVSTNLQP | not soluble |
| SSTQYSILFKQEHAHEDAIWTAAWGRSEKDGSETIVTGSLDDLVKVWKWSDEKLELQWTLEGHQLGVVSVNISQNGAIAASSSLDAHIRLWDLETGKQIKSMDAGPVDAWTVAFSPDSKYIATGSHLGKVNIFGVESGKKEHSLDTRGKFILSIAYSPDGKYLASGAIDGIINIFDIATGKLLHTLEGHAMPIRSLTFSPDSQLLVTASDDGYIKIYDVQHANLAGTLSGHGSWVLSVAFSPDDTHFVSSSSDKSIKVWDTSSRSCVNTFFDHQDQVWSVKYNPTGSKIVSAGDDRAIHIYDCPM | soluble |
| MSEQFVTISQHVRNPQEAAALFGVHDIHLKRIEEELGVSIVTRGETVNVSGTPQQVQLVNELLRHLLIVIRKGAAVSERDVLYAIQLAKKGALDGLVQLYDEEITKNAKGKPIRVKTLGQRYYVAAIEQYDLTFGIGPAGTGKTYLAVVMAVKALKNGSVKRIILTRPAVEAGESLGFLPGDLKEKVDPYLRPLYDALNDVLGAEYTQRLIERGTIEIAPLAYMRGRTLEDAFVILDEAQNTTPAQMKMFLTRLGFGSKMVITGDISQVDLPKGVESGLSVAKRILASIGGIAFVFLEQSDVVRHPLVAKIIDAYDEAGL | not soluble |
| MSLMELQGKFLIAMPHLDDYFNRTVVFMCEHNEQGSMGLVINQPTDLSIAELYSKLNFMMKNDRTFGNEMVVAGGPMHTERGFILHKNTLNAFQHTYKVTKELSMTTSADVVETLGSTFAPEKYLVALGCSSWGAGQLEKEIRDNAWLVVSSNDQILFDMPYEDRYAAANQLLGIHPYNFALAQVGHSEGGSHHHHHH | soluble |

Source: the DeepSol protein solubility set
